Legend:
carboxypeptidase B = molecular target: T1, carboxypeptidase B (Homo sapiens, UniProt P15086); assay: Resistance in vitro to digestion with carboxypeptidase B; format: in vitro ADME
T1 sequence (P15086 111-417): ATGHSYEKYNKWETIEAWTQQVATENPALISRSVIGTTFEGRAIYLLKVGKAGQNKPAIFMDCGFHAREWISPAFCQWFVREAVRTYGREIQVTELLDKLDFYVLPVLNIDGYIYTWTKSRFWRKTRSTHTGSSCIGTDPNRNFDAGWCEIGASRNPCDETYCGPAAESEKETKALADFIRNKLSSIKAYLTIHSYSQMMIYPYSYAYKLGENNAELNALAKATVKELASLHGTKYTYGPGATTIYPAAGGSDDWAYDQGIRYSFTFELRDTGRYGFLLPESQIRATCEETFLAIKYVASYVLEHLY

[1] = test system: streptozotocin-induced diabetic rats; assay: Stimulation of islet neogenesis in vivo, glucose challenge in diabetic rats; set-up: species or system rat
Description: After treatment, rats were evaluated for ability to restore plasma glucose to resting levels, shown on the ordinate, as a function of time in minutes shown on the abscissa, after an oral glucose challenge.
EGF51N produced as above was used in an assay to measure to stimulation of islet neogenesis in vivo, as measured by lower blood concentration of treated animals to a subsequent challenge by glucose, to diabetic rats.

[2] = test system: anaesthetized gastric fistula rats; assay: Inhibition of gastric acid secretion in vivo; set-up: species or system rat; conditions: after intravenous bolus injection of 8 μg
[3] = relative enzyme concentration (ratio of carboxypeptidase to EGF) 0.01
[4] = relative enzyme concentration (ratio of carboxypeptidase to EGF) 0.1
[5] = relative enzyme concentration (ratio of carboxypeptidase to EGF) 1 (excess enzyme)

Row | Molecule | % remaining (carboxypeptidase B; [3]) [%] | % remaining (carboxypeptidase B; [4]) [%] | % remaining (carboxypeptidase B; [5]) [%] | restoration of plasma glucose to resting levels after oral glucose challenge ([1]; 40 μg/kg/day of each of human gastrin and EGF51N, intraperitoneal continuous infusion for 14 days) | potency in stimulation of islet neogenesis ([1]; diabetic rats, glucose challenge, compared with positive control TGFα) | duration of inhibition of gastric acid production [2] [min] | onset of inhibition of gastric acid production [2] [min]
1 | CC[C@H](C)[C@@H]1NC(=O)[C@H](Cc2ccc(O)cc2)NC(=O)CNC(=O)[C@H](C(C)C)NC(=O)[C@H](C(C)C)NC(=O)[C@@H](NC(=O)[C@H](CC(N)=O)NC(=O)[C@@H]2CSSC[C@@H]3NC(=O)[C@H](Cc4ccc(O)cc4)NC(=O)CNC(=O)[C@H](CC(=O)O)NC(=O)[C@H](Cc4c[nH]cn4)NC(=O)[C@H](CO)NC(=O)[C@H](CC(C)C)NC(=O)[C@@H]4CCCN4C(=O)[C@@H](NC(=O)[C@H](CCC(=O)O)NC(=O)[C@H](CO)NC(=O)[C@H](CC(=O)O)NC(=O)[C@H](CO)NC(=O)[C@@H](N)CC(N)=O)CSSC[C@H](NC(=O)[C@H](C(C)C)NC(=O)CNC(=O)[C@H](CC(=O)O)NC(=O)[C@H](Cc4c[nH]cn4)NC(=O)[C@H](CC(C)C)NC3=O)C(=O)N[C@@H](CCSC)C(=O)N[C@@H](Cc3ccc(O)cc3)C(=O)N[C@@H]([C@@H](C)CC)C(=O)N[C@@H](CCC(=O)O)C(=O)N[C@@H](C)C(=O)N[C@@H](CC(C)C)C(=O)N[C@@H](CC(=O)O)C(=O)N[C@@H](CCCCN)C(=O)N[C@@H](Cc3ccc(O)cc3)C(=O)N[C@@H](C)C(=O)N2)CSSC[C@@H](C(=O)N[C@@H](CCC(N)=O)C(=O)N[C@@H](Cc2ccc(O)cc2)C(=O)N[C@@H](CCCNC(=N)N)C(=O)N[C@@H](CC(=O)O)C(=O)N[C@@H](CC(C)C)C(=O)N[C@@H](CCCCN)C(=O)N[C@@H](Cc2c[nH]c3ccccc23)C(=O)N[C@@H](Cc2c[nH]c3ccccc23)C(=O)N[C@@H](CCC(=O)O)C(=O)N[C@@H](CC(C)C)C(=O)N[C@@H](CCCNC(=N)N)C(=O)O)NC(=O)[C@H](CCCNC(=N)N)NC(=O)[C@H](CCC(=O)O)NC(=O)CNC1=O [EGF53, reference compound] | 75 | 1 | 1 | – | – | – | –
2 | EGF51N: modified human EGF, chain length 51 amino acids, C-terminus residue asparagine instead of glutamic acid; produced in Pichia pastoris (NSDSECPLSHDGYCLHDGVCMYIEALDKYACNCVVGYIGERCQYRSLKYYN; not fully specified; Recombinant human EGF51N) | 75 | 30 | 6 | Rapid restoration to resting levels of plasma glucose | equivalent to the positive control TGFα | 20 to 50 | 10 to 20

— patent US7037504B2, “Epidermal growth factor protein and gene, and methods of use therefor” (Waratah Pharmaceuticals, Inc., priority 2001, dated 2006)
